Target: humanized CD47 polypeptide on red blood cells from humanized CD47 mice (human extracellular and transmembrane portions with mouse signal peptide portion and mouse intracytoplasmic tail) (UniProt Q08722)
Assay: flow cytometry on RBCs from humanized CD47 mice, isotype control (baseline)

UniProt Q08722, sequence (Q08722 other isoform, or with tags, fused parts or gaps limits assumed): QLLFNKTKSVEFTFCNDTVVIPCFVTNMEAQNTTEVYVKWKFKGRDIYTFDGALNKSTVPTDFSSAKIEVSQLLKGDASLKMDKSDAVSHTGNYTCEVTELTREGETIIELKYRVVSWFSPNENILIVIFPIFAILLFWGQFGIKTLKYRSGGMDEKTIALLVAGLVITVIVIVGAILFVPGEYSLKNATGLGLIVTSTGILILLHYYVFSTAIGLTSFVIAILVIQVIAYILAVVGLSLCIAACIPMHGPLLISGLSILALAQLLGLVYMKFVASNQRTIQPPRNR

| MFI | Substance |
| --- | --- |
| 112 MFI | Control, hIgG4s (antibody) |
| 112 MFI | Control, hIgG4 (antibody) |

Reference: patent US20240138384A1
